Assay results taken from paper PMC10115415.

Columns and labels:
[1] = target: MLL1 third plant homeodomain (PHD3) (UniProt Q03164); experiment: ITC; conditions not given (table S1, fig. S2)
[2] = target: Histone H3 H3K4me3 (Homo sapiens) (UniProt P68431); conditions: cited from earlier work
[3] = target: Cyp33 RRM∆α/MLL1 PHD3 complex (UniProt Q9UNP9); experiment: ITC; conditions not given (table S1, fig. S2)
[4] = tested on: H3(1-13)K4me3 peptide; experiment: ITC; conditions: NMR titrations: 20 mM KHPO4 pH 7, 40 mM KCl, 1 mM DTT, 289.15 K as printed (table S2 says 298.15 K for Kd); structures of complexes: 40 mM KCl, 20 mM KH2PO4 pH …

MLL1 third plant homeodomain (PHD3), sequence (Q03164 1564-1627): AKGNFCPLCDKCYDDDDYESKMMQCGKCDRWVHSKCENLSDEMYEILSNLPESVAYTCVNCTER
MLL1 PHD3-BRD, sequence (Q03164 1566-1784): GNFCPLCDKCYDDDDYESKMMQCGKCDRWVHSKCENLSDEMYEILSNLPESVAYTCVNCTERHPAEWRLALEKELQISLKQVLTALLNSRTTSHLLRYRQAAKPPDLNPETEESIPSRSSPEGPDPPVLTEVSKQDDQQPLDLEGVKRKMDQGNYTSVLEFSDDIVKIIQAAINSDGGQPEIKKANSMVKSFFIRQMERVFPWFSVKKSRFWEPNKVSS

Substance	Kd [1] [µM]	other results
MLL1 PHD3-BRD (from UniProt Q03164)		Kd [2]: 4 µM
Cyp33 W101A, L102A, F105A triple mutant (Cyp33-WLF)	7	
Histone H3 lysine N6-trimethylated peptide (H3K4me3) (from UniProt P68431 2-14)		Kd [3]: 24 µM
UAAUGUUAAUGUUAAUGUUAAUGU [4x UAAUGU repeat RNA]		Kd [4]: 30 µM
Cyp33 RK86-88A double mutant	7	

More lines, main results first:

Kd [1] [µM]	Substance	other results
7	Cyp33 KRK83-88A triple mutant	
7	Cyp33 K83A mutant	
4.6	Cyp33 RNA recognition motif (RRM) with the C-terminal extension (α3 helix) (from UniProt Q9UNP9 1-114) (domain or fragment)	
